Data from article PMC8649222, “Exclusive inhibition of IL-6 trans-signaling by soluble gp130^FlyRFc” (Cytokine: X, 2021).
Residue numbers refer to the chain shown, from its start.

B1: sgp130Fc (Fc fusion, human, UniProt P40189 23-619, looked up)
chain: ELLDPCGYISPESPVVQLHSNFTAVCVLKEKCMDYFHVNANYIVWKTNHFTIPKEQYTIINRTASSVTFTDIASLNIQLTCNILTFGQLEQNVYGITIISGLPPEKPKNLSCIVNEGKKMRCEWDGGRETHLETNFTLKSEWATHKFADCKAKRDTPTSCTVDYSTVYFVNIEVWVEAENALGKVTSDHINFDPVYKVKPNPPHNLSVINSEELSSILKLTWTNPSIKSVIILKYNIQYRTKDASTWSQIPPEDTASTRSSFTVQDLKPFTEYVFRIRCMKEDGKGYWSDWSEEASGITYEDRPSKAPSFWYKIDPSHTQGYRTVQLVWKTLPPFEANGKILDYEVTLTRWKSHLQNYTVNATKLTVNLTNDRYLATLTVRNLVGKSDAAVLTIPACDFQATHPVMDLKAFPKDNMLWVEWTTPRESVKKYILEWCVLSDKAPCITDWQQEDGTVHRTYLRGNLAESKCYLITVTPVYADGPGSPESIKAYLKQAPPSKGPTVRTKKVGKNEAVLEWDQLPVDVQNGFIRNYTIFYRTIIGNETAVNVDSSHTEYTLSSLTSDTLYMVRMAAYTDEGGKDGPEFTFTTPKFAQGEIE
B2: sgp130^R281QFc (Fc fusion, human, UniProt P40189 23-619, looked up)
chain: B1 chain with R259Q
B3: sgp130^FlyFc (Fc fusion, human, UniProt P40189 23-619, looked up)
chain: B1 chain with T80Y, Q91F, N92L
B4: Hyper IL-11 (HIL-11), IL-11 covalently linked to sIL-11R (other)
chain: SSPCPQAWGPPGVQYGQPGRSVKLCCPGVTAGDPVSWFRDGEPKLLQGPDSGLGHELVLAQADSTDEGTYICQTLDGALGGTVTLQLGYPPARPVVSCQAADYENFSCTWSPSQISGLPTRYLTSYRKKTVLGADSQRRSPSTGPWPCPQDPLGAARCVVHGAEFWSQYRINVTEVNPLGASTRLLDVSLQSILRPDPPQGLRVESVPGYPRRLRASWTYPASWPCQPHFLLKFRLQYRPAQHPAWSTVEPAGLEEVITDAVAGLPHAVRVSARDFLDAGTWSTWSPEAWGTPSTGTIPKEIPAWGQLHTQPEVEPQVDSPAPPRPSLQPHPRLLDHRDSVEQVAVLAPGPPPGPPRVSPDPRAELDSTVLLTRSLLADTRQLAAQLRDKFPADGDHNLDSLPTLAMSAGALGALQLPGVLTRLRADLLSYLRHVQWLRRAGGSSLKTLEPELGTLQARLDRLLRRLQLLMSRLALPQPPPDPPAPPLAPPSSAWGGIRAAHAILGGLHLTLDWAVRGLLLLKTRL
B5: IL-27 (complex)
chain 1: FPRPPGRPQLSLQELRREFTVSLHLARKLLSEVRGQAHRFAESHLPGVNLYLLPLGEQLPDVSLTFQAWRRLSDPERLCFISTTLQPFHALLGGLGTQGRWTNMERMQLWAMRLDLRDLQRHLRFQVLAAGFNLPEEEEEEEEEEEEERKGLLPGALGSALQGPAQVSWPQLLSTYRLLHSLELVLSRAVRELLLLSKAGHSVWPLGFPTLSPQP
chain 2: RKGPPAALTLPRVQCRASRYPIAVDCSWTLPPAPNSTSPVSFIATYRLGMAARGHSWPCLQQTPTSTSCTITDVQLFSMAPYVLNVTAVHPWGSSSSFVPFITEHIIKPDPPEGVRLSPLAERQLQVQWEPPGSWPFPEIFSLKYWIRYKRQGAARFHRVGPIEATSFILRAVRPRARYYVQVAAQDLTDYGELSDWSLPATATMSLGK

Columns and labels:
[1] = molecular target: B4; assay: cell-based or functional assay
[2] = molecular target: B1; assay: SPR; Biacore X100, multi-cycle; sgp130Fc variants captured on a Protein A chip (~500 RU); HIL-6 or HIL-11 injected at 0.1953-50 nM, 30 µl/min; 25 °C, PBS pH 7.4, 0.05% surfactant P20; 1:1 binding model; conditions: both partners purified
[3] = molecular target: B3; assay: as above; conditions: both partners purified
[4] = molecular target: B2; assay: as above; conditions: both partners purified
[5] = molecular target: B1; assay: SPR; sgp130Fc and sgp130^FlyFc captured on a ProtA chip; increasing concentrations of IL-27 injected; conditions: both partners purified
[6] = molecular target: B3; assay: as above; conditions: both partners purified

B1
IC50 of inhibition of H-IL-11 (10 ng/ml) induced proliferation of Ba/F3-gp130 cells (blocks HIL-11 from membrane-bound gp130) [1]: 0.12 nM

B2
IC50 of inhibition of H-IL-11 (10 ng/ml) induced proliferation of Ba/F3-gp130 cells (blocks HIL-11 from membrane-bound gp130) [1]: 72.8 nM

B3
IC50 of inhibition of H-IL-11 (10 ng/ml) induced proliferation of Ba/F3-gp130 cells (blocks HIL-11 from membrane-bound gp130) [1]: 40.7 nM

B4
Kd [2]: 0.069 nM
Kd [3]: 0.67 nM
Kd [4]: 0.61 nM

B5
Kd [5]: 69 nM
Kd [6]: 58 nM
